# In FireProtDB (doi:10.1021/bi9815243):
# B1: Guanyl-specific ribonuclease Sa, P05798 (parent)
# chain: DVSGTVCLSALPPEATDTLNLIASDGPFPYSQDGVVFQNRESVLPTQSYGYYHEYTVITPGARTRGTRRIITGEATQEDYYTGDHYATFSLIDQTC
# B2: Guanyl-specific ribonuclease T1, P00651 (parent)
# chain: MMYSKLLTLTTLLLPTALALPSLVERACDYTCGSNCYSSSDVSTAQAAGYQLHEDGETVGSNSYPHKYNNYEGFDFSVSSPYYEWPILSSGDVYSGGSPGADRVVFNENNQLAGVITHTGASGNNFVECT
# Variants of: B1
# Conditions: Kitasatospora aureofaciens; pH 2; Thermal; CD; MOPS 30 mM; transition: 2; reversible: Yes; structure 1RGG; whole UniProt chain shown
Variant,Tm,"change of melting temperature, mutant - wild type (higher = more stable)",unfolding enthalpy (van 't Hoff)
DVSGTVCLSALPPEATDTLNLIASDGPFPYSQDGVVFQDRESVLPTQSYGYYHEYTVITPGARTRGTRRIITGEATQEDYYTGDHYATFSLIDQTC [N39D],23.3 °C,-4.7 °C,50.3 kcal/mol

# Same assay, conditions: Kitasatospora aureofaciens; pH 7; 48.4 °C; Thermal; CD; MOPS 30 mM; reversible: yes (>95%); structure 1RGG; whole UniProt chain shown
row,Variant,ddG of mutation (higher = less stable)
1,DVSGTVCLSALPPEATDTLNLIASDGPFPYSQDGVVFQDRESVLPTQSYGYYHEYTVITPGARTRGTRRIITGEATQEDYYTGDHYATFSLIDQTC [N39D],1.5 kcal/mol
2,DVSGTVCLSALPPEATDTLNLIASDGPFPYSQDGVVFQARESVLPTQSYGYYHEYTVITPGARTRGTRRIITGEATQEDYYTGDHYATFSLIDQTC [N39A],2.2 kcal/mol
3,DVSGTVCLSALPPEATDTLNLIASDGPFPYSQDGVVFQSRESVLPTQSYGYYHEYTVITPGARTRGTRRIITGEATQEDYYTGDHYATFSLIDQTC [N39S],2.3 kcal/mol

# Same assay, conditions: Kitasatospora aureofaciens; pH 7; Thermal; CD; MOPS 30 mM; reversible: yes (>95%); structure 1RGG; whole UniProt chain shown
Variant,Tm,"change of melting temperature, mutant - wild type (higher = more stable)",unfolding enthalpy (van 't Hoff)
DVSGTVCLSALPPEATDTLNLIASDGPFPYSQDGVVFQDRESVLPTQSYGYYHEYTVITPGARTRGTRRIITGEATQEDYYTGDHYATFSLIDQTC [N39D],43.2 °C,-5.2 °C,83.5 kcal/mol
DVSGTVCLSALPPEATDTLNLIASDGPFPYSQDGVVFQARESVLPTQSYGYYHEYTVITPGARTRGTRRIITGEATQEDYYTGDHYATFSLIDQTC [N39A],40.8 °C,-7.6 °C,70.4 kcal/mol
DVSGTVCLSALPPEATDTLNLIASDGPFPYSQDGVVFQSRESVLPTQSYGYYHEYTVITPGARTRGTRRIITGEATQEDYYTGDHYATFSLIDQTC [N39S],40.4 °C,-8 °C,73.5 kcal/mol

# Same assay, conditions: Kitasatospora aureofaciens; pH 7; Thermal; CD; MOPS 30 mM; transition: 2; reversible: Yes; structure 1RGG; whole UniProt chain shown
Variant,Tm,"change of melting temperature, mutant - wild type (higher = more stable)",unfolding enthalpy (van 't Hoff)
DVSGTVCLSALPPEATDTLNLIASDGPFPYSQDGVVFQDRESVLPTQSYGYYHEYTVITPGARTRGTRRIITGEATQEDYYTGDHYATFSLIDQTC [N39D],43.2 °C,-5.2 °C,83.5 kcal/mol
DVSGTVCLSALPPEATDTLNLIASDGPFPYSQDGVVFQARESVLPTQSYGYYHEYTVITPGARTRGTRRIITGEATQEDYYTGDHYATFSLIDQTC [N39A],40.8 °C,-7.6 °C,70.4 kcal/mol
DVSGTVCLSALPPEATDTLNLIASDGPFPYSQDGVVFQSRESVLPTQSYGYYHEYTVITPGARTRGTRRIITGEATQEDYYTGDHYATFSLIDQTC [N39S],40.4 °C,-8 °C,73.5 kcal/mol

# Variants of: B2
# Conditions: Aspergillus oryzae (strain ATCC 42149 / RIB 40); pH 2.7; 25 °C; Urea; CD; glycine 30 mM; reversible: yes (>95%); structure 1RN1; whole UniProt chain shown
Variant,ddG of mutation (higher = less stable),denaturant m value,denaturant midpoint (higher = more stable),unfolding free energy
MMYSKLLTLTTLLLPTALALPSLVERACDYTCGSNCYSSSDVSTAQAAGYQLHEDGETVGSNSYPHKYNDYEGFDFSVSSPYYEWPILSSGDVYSGGSPGADRVVFNENNQLAGVITHTGASGNNFVECT [N70D],0.5 kcal/mol,1.66 kcal/mol/M,3.45 M,5.71 kcal/mol

# Same assay, conditions: Aspergillus oryzae (strain ATCC 42149 / RIB 40); pH 2.7; 25 °C; Urea; Fluorescence; glycine 30 mM; transition: 2; reversible: Yes; structure 1RN1; whole UniProt chain shown
Variant,denaturant m value,denaturant midpoint (higher = more stable),unfolding free energy
MMYSKLLTLTTLLLPTALALPSLVERACDYTCGSNCYSSSDVSTAQAAGYQLHEDGETVGSNSYPHKYNDYEGFDFSVSSPYYEWPILSSGDVYSGGSPGADRVVFNENNQLAGVITHTGASGNNFVECT [N70D],1.66 kcal/mol/M,3.45 M,5.71 kcal/mol

# Same assay, conditions: Aspergillus oryzae (strain ATCC 42149 / RIB 40); pH 7; 25 °C; Urea; CD; MOPS 30 mM; reversible: yes (>95%); structure 1RN1; whole UniProt chain shown
Variant,ddG of mutation (higher = less stable),denaturant m value,denaturant midpoint (higher = more stable),unfolding free energy
MMYSKLLTLTTLLLPTALALPSLVERACDYTCGSNCYSSSDVSTAQAAGYQLHEDGETVGSNSYPHKYNDYEGFDFSVSSPYYEWPILSSGDVYSGGSPGADRVVFNENNQLAGVITHTGASGNNFVECT [N70D],2 kcal/mol,1.25 kcal/mol/M,3.54 M,4.43 kcal/mol
MMYSKLLTLTTLLLPTALALPSLVERACDYTCGSNCYSSSDVSTAQAAGYQLHEDGETVGSNSYPHKYNSYEGFDFSVSSPYYEWPILSSGDVYSGGSPGADRVVFNENNQLAGVITHTGASGNNFVECT [N70S],1.9 kcal/mol,1.22 kcal/mol/M,3.6 M,4.39 kcal/mol
MMYSKLLTLTTLLLPTALALPSLVERACDYTCGSNCYSSSDVSTAQAAGYQLHEDGETVGSNSYPHKYNAYEGFDFSVSSPYYEWPILSSGDVYSGGSPGADRVVFNENNQLAGVITHTGASGNNFVECT [N70A],2 kcal/mol,1.17 kcal/mol/M,3.51 M,4.12 kcal/mol

# Same assay, conditions: Aspergillus oryzae (strain ATCC 42149 / RIB 40); pH 7; 25 °C; Urea; Fluorescence; MOPS 30 mM; transition: 2; reversible: Yes; structure 1RN1; whole UniProt chain shown
Variant,ddG of mutation (higher = less stable),denaturant m value,denaturant midpoint (higher = more stable),unfolding free energy
MMYSKLLTLTTLLLPTALALPSLVERACDYTCGSNCYSSSDVSTAQAAGYQLHEDGETVGSNSYPHKYNDYEGFDFSVSSPYYEWPILSSGDVYSGGSPGADRVVFNENNQLAGVITHTGASGNNFVECT [N70D],2 kcal/mol,1.25 kcal/mol/M,3.54 M,4.43 kcal/mol
MMYSKLLTLTTLLLPTALALPSLVERACDYTCGSNCYSSSDVSTAQAAGYQLHEDGETVGSNSYPHKYNSYEGFDFSVSSPYYEWPILSSGDVYSGGSPGADRVVFNENNQLAGVITHTGASGNNFVECT [N70S],1.9 kcal/mol,1.22 kcal/mol/M,3.6 M,4.39 kcal/mol
MMYSKLLTLTTLLLPTALALPSLVERACDYTCGSNCYSSSDVSTAQAAGYQLHEDGETVGSNSYPHKYNAYEGFDFSVSSPYYEWPILSSGDVYSGGSPGADRVVFNENNQLAGVITHTGASGNNFVECT [N70A],2 kcal/mol,1.17 kcal/mol/M,3.51 M,4.12 kcal/mol

# Same assay, conditions: Aspergillus oryzae (strain ATCC 42149 / RIB 40); pH 7; 50.8 °C; Thermal; CD; MOPS 30 mM; reversible: yes (>95%); structure 1RN1; whole UniProt chain shown
row,Variant,ddG of mutation (higher = less stable)
1,MMYSKLLTLTTLLLPTALALPSLVERACDYTCGSNCYSSSDVSTAQAAGYQLHEDGETVGSNSYPHKYNDYEGFDFSVSSPYYEWPILSSGDVYSGGSPGADRVVFNENNQLAGVITHTGASGNNFVECT [N70D],1.6 kcal/mol
2,MMYSKLLTLTTLLLPTALALPSLVERACDYTCGSNCYSSSDVSTAQAAGYQLHEDGETVGSNSYPHKYNSYEGFDFSVSSPYYEWPILSSGDVYSGGSPGADRVVFNENNQLAGVITHTGASGNNFVECT [N70S],1.5 kcal/mol
3,MMYSKLLTLTTLLLPTALALPSLVERACDYTCGSNCYSSSDVSTAQAAGYQLHEDGETVGSNSYPHKYNAYEGFDFSVSSPYYEWPILSSGDVYSGGSPGADRVVFNENNQLAGVITHTGASGNNFVECT [N70A],1.6 kcal/mol

# Same assay, conditions: Aspergillus oryzae (strain ATCC 42149 / RIB 40); pH 7; Thermal; CD; MOPS 30 mM; reversible: yes (>95%); structure 1RN1; whole UniProt chain shown
Variant,Tm,"change of melting temperature, mutant - wild type (higher = more stable)",unfolding enthalpy (van 't Hoff)
MMYSKLLTLTTLLLPTALALPSLVERACDYTCGSNCYSSSDVSTAQAAGYQLHEDGETVGSNSYPHKYNDYEGFDFSVSSPYYEWPILSSGDVYSGGSPGADRVVFNENNQLAGVITHTGASGNNFVECT [N70D],45.3 °C,-5.5 °C,84.2 kcal/mol
MMYSKLLTLTTLLLPTALALPSLVERACDYTCGSNCYSSSDVSTAQAAGYQLHEDGETVGSNSYPHKYNSYEGFDFSVSSPYYEWPILSSGDVYSGGSPGADRVVFNENNQLAGVITHTGASGNNFVECT [N70S],45.8 °C,-5 °C,89.6 kcal/mol
MMYSKLLTLTTLLLPTALALPSLVERACDYTCGSNCYSSSDVSTAQAAGYQLHEDGETVGSNSYPHKYNAYEGFDFSVSSPYYEWPILSSGDVYSGGSPGADRVVFNENNQLAGVITHTGASGNNFVECT [N70A],45.6 °C,-5.2 °C,86.8 kcal/mol

# Same assay, conditions: Aspergillus oryzae (strain ATCC 42149 / RIB 40); pH 7; Thermal; CD; MOPS 30 mM; transition: 2; reversible: Yes; structure 1RN1; whole UniProt chain shown
Variant,Tm,"change of melting temperature, mutant - wild type (higher = more stable)",unfolding enthalpy (van 't Hoff)
MMYSKLLTLTTLLLPTALALPSLVERACDYTCGSNCYSSSDVSTAQAAGYQLHEDGETVGSNSYPHKYNSYEGFDFSVSSPYYEWPILSSGDVYSGGSPGADRVVFNENNQLAGVITHTGASGNNFVECT [N70S],45.8 °C,-5 °C,89.6 kcal/mol
MMYSKLLTLTTLLLPTALALPSLVERACDYTCGSNCYSSSDVSTAQAAGYQLHEDGETVGSNSYPHKYNAYEGFDFSVSSPYYEWPILSSGDVYSGGSPGADRVVFNENNQLAGVITHTGASGNNFVECT [N70A],45.6 °C,-5.2 °C,86.8 kcal/mol
